Results taken from patent publication US20180009908.

B1: matuzumab HC_7.8.60_A + matuzumab LC (IgG1) (protein)
chain 1: QVQLVQSGAEVKKPGASVKVSCKASGYTFTSHWMHWVRYAPGQGLEWIGEFNPSNGRTNYNEKFKSKATMTVDTSTNTAYMELSSLRSEDTAVYYCASRDYDYDGRYFDYWGRGTLVTVSSASTKGPSVFPLAPCSKSTSGGTAALGCLVKDYFPEPVTVSWNSGALTSGVHTFPAVLQSSGLYSLSSVVTVPSSSLGTQTYICNVNHKPSNTKVDKKVEPDSGDKTHTCPPCPAPELLGGPSVFLFPPKPKDTLMISRTPEVTCVVVDVSHEDPEVKFNWYVDGVEVHNAKTKPREEQYNSTYRVVSVLTVLHQDWLNGKEYKCKVSNKALPAPIEKTISKAKGQPREPQVYTLPPSREEMTDNQVSLTCLVKGFYPSDIAVEWESNGQPENNYKTTPPVLMSDGSFFLASKLTVDKSRWQQGNVFSCSVMHEALHNHYTQKSLSLSPGK
chain 2: DIQMTQSPSSLSASVGDRVTITCSASSSVTYMYWYQRKPGDAPKLLIYDTSNLASGVPSRFSGSGSGTDYTFTISSLQPEDIATYYCQQWSSHIFTFGQGTKVEIKRTVAAPSVFIFPPSKEQLKSGTASVVCLLNNFYPREAKVQWKVDNALQSGNSQESVTEQDSKDSTYSLSSTLTLSKADYEKHKVYACEVTHQGLSSPVTKSFNRGEC
B2: MetMAb HC_7.8.60_B + MetMAb LC (IgG1) (protein)
chain 1: EVQLVESGGGLVQPGGSLRLSCAASGYTFTSYWLHWVRKAPGKGLEWVGMIDPSNSDTRFNPEFKDRFTISADTSKNTAYLQMNSLRAEDTAVYYCATYRSYVTPLDYWGQGTLVTVSSASTKGPSVFPLAPSSKSTSGGTAALGCLVKDYFPEPVTVSWNSGALTSGVATGPAVLQSSGLYSLSSVVTVPSSSLGTQTYICNVNHKPSNTKVDKKVEPKSCDKTHTCPPCPAPELLGGPSVFLFPPKPKDTLMISRTPEVTCVVVDVSHEDPEVKFNWYVDGVEVHNAKTKPREEQYQSTYRVVSVLTVLHQDWLNGKEYKCKVSNKALPAPIEKTISKAKGQPRRPRVYTLPPSREEMTKNQVSLVCLVKGFYPSDIAVEWESNGQPENNYKTTPPVLDSDGSFFLYSVLTVDKSRWQQGNVFSCSVMHEALHNHYTQKSLSLSPGK
chain 2: RIQMTQSPSSLSASVGDRVTITCKSSQSLLYTSSQKNYLAWYQDKPGKAPKLLIYWASTRESGVPSRFSGSGSGTDFTLTISSLQPEDFATYYCQQYYAYPWTFGQGTKVEIKGQPKAAPSVTLFPPSSEELQANKATLVCYISDFYPGAVTVAWKADSSPVKAGVETTTPSKQSNNKYAAWSYLSLTPEQWKSHRSYSCQVTHEGSTVEKTVAPTEC

Key:
[1] = LCMS, IgG1 BsAb co-expression; HCB (matuzumab) homodimer species
[2] = molecular target: matuzumab HC_7.8.60_A + matuzumab LC (IgG1); test: LCMS, IgG1 BsAb co-expression; HCA/HCB heterodimer carrying two LC1
[3] = molecular target: matuzumab HC_7.8.60_A + matuzumab LC (IgG1); test: LCMS, IgG1 BsAb co-expression; HCA/HCB heterodimer carrying two LC2
[4] = molecular target: matuzumab HC_7.8.60_A + matuzumab LC (IgG1); test: LCMS, IgG1 BsAb co-expression in HEK293F
[5] = LCMS, IgG1 BsAb co-expression; HCA (MetMAb) homodimer species

Protein | % BB Homodimer (incorrect assembly) [1] [%] | % AB (2x LC1) (incorrect assembly) [2] [%] | % AB (2x LC2) (incorrect assembly) [3] [%] | % AB (LC1/LC2) (correct IgG BsAb assembly) [4] [%] | % AA Homodimer (incorrect assembly) [5] [%]
B1 | 0 |  |  |  | 
B2 |  | 9.2 | 0 | 90.8 | 0
